# Test results from the Human Domainome abundance scans (Beltran et al. 2025).
# ± gives the uncertainty stated by the source.
# B1: Apoptosis-associated speck-like protein containing a CARD, residues 114 to 194; numbered along this chain, Q9ULZ3 (parent)
# chain: FIDQHRAALIARVTNVEWLLDALYGKVLTDEQYQAVRAEPTNPSKMRKLFSFTPAWNWTCKDLLLQALRESQSYLVEDLER
# Variants of: B1
# Assay: abundance fitness (aPCA) (normalised: wild type 0, dead -1); higher = more abundant; growth selection in yeast, the domain comes from the species named
# Settings: Homo sapiens
row,Variant,abundance fitness
1,D78A,-0.286 ± 0.085
2,D78P,-0.687 ± 0.1
3,D78Y,-0.218 ± 0.11
4,L20R,-0.917 ± 0.095
5,L20Q,-0.854 ± 0.2
6,K26I,-0.094 ± 0.11
7,K26V,-0.106 ± 0.051
8,K26T,0.014 ± 0.073
9,K26H,-0.422 ± 0.13
10,K26L,-0.438 ± 0.052
11,K61W,-0.003 ± 0.071
12,K61H,0.028 ± 0.1
13,D62G,-0.194 ± 0.06
14,D62T,-0.423 ± 0.1
15,T14G,-0.265 ± 0.058
16,T14A,-0.4 ± 0.067
17,T14L,-0.571 ± 0.09
18,T14K,-0.295 ± 0.17
19,T59N,0.018 ± 0.11
20,T59V,-0.128 ± 0.052
21,T59G,-0.019 ± 0.046

row,Variant,abundance fitness
1,T59C,-0.135 ± 0.079
2,T59W,0.041 ± 0.057
3,T59F,-0.023 ± 0.1
4,T59A,0.109 ± 0.046
5,T59M,-0.084 ± 0.08
6,Q32N,-0.873 ± 0.22
7,Q32I,-0.772 ± 0.26
8,Q32V,-0.862 ± 0.11
9,Q32E,-0.276 ± 0.11
10,Q32W,-0.873 ± 0.14
11,Q32T,-0.507 ± 0.12
12,Q32P,-0.941 ± 0.16
13,H5K,-0.605 ± 0.19
14,H5V,-0.147 ± 0.057
15,Y33A,-0.1 ± 0.06
16,F50L,0.182 ± 0.046
17,F50M,0.113 ± 0.071
18,L23Q,-0.739 ± 0.24
19,L23G,-0.911 ± 0.09
20,L23W,-0.939 ± 0.21
21,L23K,-0.645 ± 0.15

row,Variant,abundance fitness
1,D3L,-0.881 ± 0.14
2,D3Q,-0.929 ± 0.19
3,Y24Q,-0.217 ± 0.1
4,Y24D,-0.157 ± 0.14
5,Y24T,-0.654 ± 0.088
6,Y24R,0.109 ± 0.046
7,Y74Q,0.265 ± 0.062
8,Y74L,0.027 ± 0.043
9,Y74N,0.139 ± 0.11
10,Y74A,0.202 ± 0.057
11,Y74C,0.177 ± 0.084
12,E17S,-0.536 ± 0.06
13,E17Y,-0.61 ± 0.17
14,E17M,-0.49 ± 0.061
15,E17D,0.019 ± 0.1
16,E17L,-0.859 ± 0.12
17,E17Q,-0.083 ± 0.076
18,V27E,-0.731 ± 0.18
19,V27G,-0.419 ± 0.048
20,V27W,-0.734 ± 0.13
21,V27A,-0.21 ± 0.049

row,Variant,abundance fitness
1,V27L,-0.65 ± 0.071
2,A55Q,-0.062 ± 0.081
3,A55H,-0.005 ± 0.15
4,A55N,0.181 ± 0.22
5,P40E,-0.257 ± 0.086
6,P40T,-0.202 ± 0.07
7,P40A,-0.256 ± 0.068
8,P40S,-0.291 ± 0.063
9,P40G,-0.425 ± 0.042
10,P40L,-0.587 ± 0.074
11,S73N,-0.022 ± 0.15
12,S73A,-0.063 ± 0.076
13,S73L,-0.112 ± 0.046
14,S71R,-0.529 ± 0.058
15,S71T,-0.098 ± 0.08
16,S71I,-0.813 ± 0.27
17,K48H,-0.655 ± 0.34
18,K48W,-0.35 ± 0.088
19,K48Y,-1.05 ± 0.3
20,K48R,-0.185 ± 0.051
21,K48G,-0.877 ± 0.096
